Here are results for two substances from patent US10435480.

“And” between values parts separate entries of the source, which are not always exact repeats. Equal values may be shown once.

For one assay, the target named is OMP0 (E. coli) (UniProt P0A910). The assay is described as follows: M2 anti-FLAG-AP 1:1000 and PNPP on OMP0 treated PLA disc.
In assay [1] the target is Rabbit anti-mouse IgG-AP conjugate (Sigma Cat. No. A3688) (rabbit). Briefly: control without mouse IgG: conjugate only (1/5000) on OMP18, hydrophilic plate.
For assay [2] the target is unchanged. Briefly: control without mouse IgG: conjugate only (1/5000) on OMP18, hydrophobic plate.
Assay [3] has as its target Mouse IgG (Sigma Cat No. 15381) (mouse). Briefly: immunoassay, OMP18 adsorbed on hydrophilic plate, mouse IgG 2 ug/mL, anti-mouse IgG-AP and PNPP; well 1.
Assay [4] shares this target. The assay is described as follows: immunoassay, OMP18 adsorbed on hydrophilic plate, mouse IgG 2 ug/mL, anti-mouse IgG-AP and PNPP; well 2.
For assay [5] the target is unchanged. The assay is described as follows: immunoassay, OMP18 adsorbed on hydrophobic plate, mouse IgG 2 ug/mL, anti-mouse IgG-AP and PNPP; well 1.
For assay [6] the target is unchanged. Briefly: immunoassay, OMP18 adsorbed on hydrophobic plate, mouse IgG 2 ug/mL, anti-mouse IgG-AP and PNPP; well 2.

As to “M2 anti-FLAG alkaline phosphatase conjugated antibody (Sigma Cat No. A9469)”, the Absorbance at 405 nm in the assay with OMP0 (E. coli) was 0.312 A405 and 0.361 A405 and 0.374 A405.
With “OMP18 (from UniProt P38507 212-269; P38507 212-269)”, the A405 is 0.027 A405 in assay [1]; 0.056 A405 in assay [2]; 2.24 A405 in assay [3]; 2.23 A405 in assay [4]; 2.39 A405 in assay [5]; 2.33 A405 in assay [6].
